PMC5429695, “Assembly of Ruminococcus flavefaciens cellulosome revealed by structures of two cohesin-dockerin complexes” (Scientific Reports, 2017)

Tests used:
Experiment in all cases: ITC; 308 K; dockerin in the cell (stirred at 307 revolutions/min) titrated with 28 injections of 10 uL cohesin at 220 s intervals; proteins in 50 mM HEPES pH 7.5, 0.5 mM CaCl2, 0.5 mM TCEP; single-site model
Conditions in all cases: both partners purified
[1] = molecular target: T1, RfDoc1a Q83A, thioredoxin A fusion (R. flavefaciens FD-1)
T1 construct: numbers count on: the recombinant construct of the crystal structure (RfDoc1a numbering of PDB 5M2O); mutant of m3 (pHTP2 derivative); see the note of m3 on limits and numbering; source: E. coli, purified (IMAC, His GraviTrap)

[2] = molecular target: T2, RfDoc1a L87A, thioredoxin A fusion (R. flavefaciens FD-1)
T2 construct: numbers count on: the recombinant construct of the crystal structure (RfDoc1a numbering of PDB 5M2O); mutant of m3 (pHTP2 derivative); see the note of m3 on limits and numbering; source: E. coli, purified (IMAC, His GraviTrap)

[3] = molecular target: T3, RfDoc1a V43A + Q47A, thioredoxin A fusion (R. flavefaciens FD-1)
T3 construct: numbers count on: the recombinant construct of the crystal structure (RfDoc1a numbering of PDB 5M2O); mutant of m3 (pHTP2 derivative); see the note of m3 on limits and numbering; source: E. coli, purified (IMAC, His GraviTrap)

[4] = molecular target: T4, RfDoc1a, group 1a dockerin, thioredoxin A fusion, wild type (R. flavefaciens FD-1)
T4 construct: numbers count on: the recombinant construct of the crystal structure (RfDoc1a numbering, residues 23-96 seen in PDB 5M2O); also called Doc1aWT; source: E. coli, purified (IMAC, His GraviTrap)

[5] = molecular target: T5, RfDoc1b, group 1b dockerin, thioredoxin A fusion, wild type (R. flavefaciens FD-1)
T5 construct: group 1b dockerin (Doc1b), C-terminal component of protein WP_009982745, a family 9 glycoside hydrolase of R. flavefaciens FD-1, residues 783-862; numbers count on: the recombinant construct of the crystal structure (RfDoc1b numbering, residues 24-102 seen in PDB 5M2S); also called Doc1bWT; Doc1b WT; source: E. coli, purified (IMAC, His GraviTrap)

[6] = molecular target: T6, RfDoc1a I39A, thioredoxin A fusion (R. flavefaciens FD-1)
T6 construct: numbers count on: the recombinant construct of the crystal structure (RfDoc1a numbering of PDB 5M2O); mutant of m3 (pHTP2 derivative); see the note of m3 on limits and numbering; source: E. coli, purified (IMAC, His GraviTrap)

[7] = molecular target: T7, RfDoc1a S40A, thioredoxin A fusion (R. flavefaciens FD-1)
T7 construct: numbers count on: the recombinant construct of the crystal structure (RfDoc1a numbering of PDB 5M2O); mutant of m3 (pHTP2 derivative); see the note of m3 on limits and numbering; source: E. coli, purified (IMAC, His GraviTrap)

[8] = molecular target: T8, RfDoc1a V43A, thioredoxin A fusion (R. flavefaciens FD-1)
T8 construct: numbers count on: the recombinant construct of the crystal structure (RfDoc1a numbering of PDB 5M2O); mutant of m3 (pHTP2 derivative); see the note of m3 on limits and numbering; source: E. coli, purified (IMAC, His GraviTrap)

[9] = molecular target: T9, RfDoc1a Q47A, thioredoxin A fusion (R. flavefaciens FD-1)
T9 construct: numbers count on: the recombinant construct of the crystal structure (RfDoc1a numbering of PDB 5M2O); mutant of m3 (pHTP2 derivative); see the note of m3 on limits and numbering; source: E. coli, purified (IMAC, His GraviTrap)

[10] = molecular target: T10, RfDoc1a K54A, thioredoxin A fusion (R. flavefaciens FD-1)
T10 construct: numbers count on: the recombinant construct of the crystal structure (RfDoc1a numbering of PDB 5M2O); mutant of m3 (pHTP2 derivative); see the note of m3 on limits and numbering; source: E. coli, purified (IMAC, His GraviTrap)

Ka [1]: 1.54e+08 M⁻¹
dH [1]: -39.5 ± 0.83 kcal/mol
stoichiometry N [1]: 1
Ka [2]: 2.81e+07 M⁻¹
dH [2]: -59.84 ± 0.19 kcal/mol
stoichiometry N [2]: 1
Ka [3]: 436000 M⁻¹
dH [3]: -48.79 ± 0.39 kcal/mol
stoichiometry N [3]: 1
Ka [4]: 1.18e+08 M⁻¹
dH [4]: -50.68 ± 0.29 kcal/mol
stoichiometry N [4]: 1
Ka [5]: 1.03e+07 M⁻¹
dH [5]: -64.94 ± 0.44 kcal/mol
stoichiometry N [5]: 1
Ka [6]: 3.86e+06 M⁻¹
dH [6]: -57.26 ± 0.12 kcal/mol
stoichiometry N [6]: 1
Ka [7]: 1.09e+08 M⁻¹
dH [7]: -46.6 ± 0.15 kcal/mol
stoichiometry N [7]: 1
Ka [8]: 1.91e+06 M⁻¹
dH [8]: -52.08 ± 0.14 kcal/mol
stoichiometry N [8]: 1
Ka [9]: 1.71e+07 M⁻¹
dH [9]: -48.27 ± 0.12 kcal/mol
stoichiometry N [9]: 1
Ka [10]: 1.96e+07 M⁻¹
dH [10]: -59.73 ± 0.25 kcal/mol
stoichiometry N [10]: 1
B1: RfCohScaB3, ScaB cohesin 3 with C-terminal hexa-histidine tag, wild type (domain or fragment)
chain: MPVANADVVFDFQNYTAKAGDEVTVDVLVDSKNKPISAMDVKFKVDSPLTIEEIDKESLAFNTTVMTNMAILGANFKSLDDKGEPLVPKDGAAVFTLYVNVPANTPDGTYYVGFNGKNEVHKSNDGSQFTVASKNGAITVGTPNEEG
